These results are taken from patent US20230295298A1 (PRECISION BIOLOGICS, published 2023).

Assay [1] concerns the target T1, human A33 antigen, full length, on cells (human, UniProt Q99795 22-319).
T1 construct: CHO cells transfected with full length A33 cDNA (A33-CHO), or endogenous antigen of LS174T (colon) and AsPC-1 (pancreatic) tumour cells; The cell line is named under assay; also called A33-CHO; A33 antigen on LS174T cells
T1 sequence: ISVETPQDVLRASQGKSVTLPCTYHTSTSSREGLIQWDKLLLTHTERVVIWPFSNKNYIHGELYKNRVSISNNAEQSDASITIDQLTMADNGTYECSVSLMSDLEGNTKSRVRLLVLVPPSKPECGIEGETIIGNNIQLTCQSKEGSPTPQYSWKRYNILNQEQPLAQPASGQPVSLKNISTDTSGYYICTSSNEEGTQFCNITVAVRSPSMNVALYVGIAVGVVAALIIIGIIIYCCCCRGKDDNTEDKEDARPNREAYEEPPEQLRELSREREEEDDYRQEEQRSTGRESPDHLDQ
Put plainly: flow cytometry, AsPC-1 cells, 555.6 ng/ml, experiment 2.

For assay [2], the target named is T2, human recombinant A33 antigen (human, UniProt Q99795 22-235).
T2 construct: also called rH-GPA33; rHGPA33
T2 sequence: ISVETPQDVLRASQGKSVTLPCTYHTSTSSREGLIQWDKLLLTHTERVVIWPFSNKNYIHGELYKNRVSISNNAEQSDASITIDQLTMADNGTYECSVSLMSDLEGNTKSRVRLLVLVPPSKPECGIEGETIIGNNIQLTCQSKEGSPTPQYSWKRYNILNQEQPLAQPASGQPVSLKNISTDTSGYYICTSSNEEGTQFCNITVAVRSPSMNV
Put plainly: rH-GPA33 binding ELISA, 2ug/mL of 31.1, supernatant. How it is done: (§1) Human IgG ELISA, rH-GPA33 Binding ELISA, cell Flow Cytometry (LS174T or AsPAC1), IHC staining (LS174T FFPE, tumor FFPE and Frozen tumor sections) and Coomassie blue staining of SDS-PAGE gel were used for the screening. Antibody in the culture supernatant was purified by Protein A/G purification in the column and dissolved in PBS buffer after three times dialysis. Aliquots of the antibodies were kept at -20° C. for storage.
(§2) Each combination was produced by transient transfection by using Expi293 Expression System Kit (Gibco, cat# A14635). […] Methods of Human IgG ELISA, rH-GPA33 Binding ELISA, LS174T cell Flow Cytometry, IHC staining on LS174T FFPE sections and Coomassie blue staining of SDS-PAGE gel were used for the initial screening.
For orientation: An ELISA detects its analyte on a solid surface through an enzyme-linked reagent.

Assay [3] deals with T1, human A33 antigen, full length, on cells. In words: flow cytometry, AsPC-1 cells, 555.6 ng/ml, experiment 1. (A flow cytometer gives signals particle by particle.)
Assay [4] shares this target. Put plainly: flow cytometry, AsPC-1 cells, 61.7 ng/ml, experiment 1.
Assay [5] shares this target. Put plainly: flow cytometry, AsPC-1 cells, 20.6 ng/ml, experiment 2.
Assay [6] has the same target. Put plainly: flow cytometry, AsPC-1 cells, 0 ng/ml (background, no antibody), experiment 2.
For assay [7] the target is unchanged. Put plainly: flow cytometry, AsPC-1 cells, 185.2 ng/ml, experiment 2.
The target is the same in assay [8]. In words: flow cytometry, AsPC-1 cells, 0 ng/ml (background, no antibody), experiment 1.
Assay [9] shares this target. In words: flow cytometry, AsPC-1 cells, 1666.7 ng/ml, experiment 1.
Assay [10] shares this target. In words: flow cytometry on LS174T cells, 0.37ug/mL. How it is done:
as §1, §2

Assay [11] has the same target. In words: flow cytometry, AsPC-1 cells, 61.7 ng/ml, experiment 2.
The target is the same in assay [12]. Put plainly: flow cytometry, AsPC-1 cells, 185.2 ng/ml, experiment 1.
Assay [13] has the same target. In words: flow cytometry, AsPC-1 cells, 6.9 ng/ml, experiment 2.
The target is the same in assay [14]. In words: flow cytometry, AsPC-1 cells, 20.6 ng/ml, experiment 1.
Assay [15] shares this target. In words: flow cytometry, AsPC-1 cells, 2.3 ng/ml, experiment 1.
For assay [16] the target is unchanged. Put plainly: IHC on LS174T FFPE sections, 20ug/mL. How it is done: as §1, §2
Assay [17] shares this target. In words: flow cytometry, AsPC-1 cells, 2.3 ng/ml, experiment 2.
Assay [18] addresses T2, human recombinant A33 antigen. In words: rH-GPA33 binding ELISA, first round supernatant.
Assay [19] has as its target T1, human A33 antigen, full length, on cells. In words: flow cytometry, AsPC-1 cells, 5000 ng/ml, experiment 1.
The target is the same in assay [20]. Put plainly: flow cytometry, AsPC-1 cells, 5000 ng/ml, experiment 2.
For assay [21] the target is unchanged. Put plainly: flow cytometry, AsPC-1 cells, 6.9 ng/ml, experiment 1.
For assay [22] the target is unchanged. In words: flow cytometry, AsPC-1 cells, 1666.7 ng/ml, experiment 2.

B1: humanized 31.1 antibody #11 (sdr31.1-HC + sdr31.1-LC) (antibody, human IgG1, kappa, V domains shown)
VH: QIQLVQSGAEVKKPGASVKVSCKASGYTFTNYGMNWVRQAPGKGLEWMGWINPYTGEPTYAQKFQGRVTFTLDTSISTAYMELSRLRSDDTAVYFCARAYYGKYFDYWGQGTTVTVSS
VL: SIQMTQSPSSLSASVGDRVTITCRASQSISNDLAWYQQKPGQSPKLLIYYASNRYTGVPDRFSGSGYGTDFTLTISSLQPEDFAVYFCQQDYSSPLTFGAGTKLEIKR
notes: Full heavy and light chains; supernatant in the first screen, Protein A/G purified in the third round; used as negative control; also called Sample ID 11; sdr-HC + sdr-LC
B1: the MFI in [1] was 16.6 MFI; in assay [3], 16.2 MFI; in [4] it was 5.9 MFI; in assay [5], 4 MFI; in [6] it was 3.6 MFI; in [7], 8.2 MFI. Further, the MFI in assay [8] was 3.6 MFI; in [9] it was 38.9 MFI; in assay [10], 5.6 MFI; in assay [11], 5.3 MFI; in assay [12] it was 8.2 MFI; in assay [13] it was 3.6 MFI. Further, the MFI in assay [14] was found to be 4 MFI; in assay [15], 3.4 MFI; in assay [17], 3.5 MFI; in [19], 117 MFI; in [20], 117 MFI; in assay [21] it was 3.6 MFI. The molecule also came in with an MFI in [22] of 39 MFI. Also, the “OD Value of rH-GPA33 Binding ELISA” value in assay [2] is 0.06 OD. Moreover, the H-Score of IHC in [16] was 160 H-Score. Besides, in assay [18], the binding result is “no binding”.
